± gives the uncertainty stated by the source.
B1: SWI/SNF-related matrix-associated actin-dependent regulator of chromatin subfamily B member 1, residues 181 to 248; numbered along this chain, Q12824 (parent)
chain: SQPEVLVPIRLDMEIDGQKLRDAFTWNMNEKLMTPEMFSEILCDDLDLNPLTFVPAIASAIRQQIESY

Variants of: B1
Experiment: abundance fitness (aPCA) (normalised: wild type 0, dead -1); higher = more abundant; growth selection in yeast, the domain comes from the species named
Conditions: Homo sapiens

| Variant | abundance fitness |
| --- | --- |
| SQPEVLVPIRLDMEIDGQKLRDAFTWNMNEKLMTPEMFSEELCDDLDLNPLTFVPAIASAIRQQIESY | 0.131 ± 0.043 |
| SQPEVLVPIRLDMEIDGQKLRDAFTWNMNEKLMTPEMFSEWLCDDLDLNPLTFVPAIASAIRQQIESY | -0.04 ± 0.045 |
| SQPEVLVPIRLDMEIDGQKLRDAFTWNMNEKLMTPEMFSEFLCDDLDLNPLTFVPAIASAIRQQIESY | -0.103 ± 0.092 |
| SQPEVLVPIRLDMEIDGQKLRDAFTWNMNEKLMTPEMFSEYLCDDLDLNPLTFVPAIASAIRQQIESY | -0.057 ± 0.076 |
| SQPEVLVPIRLDMEIDGQKLRDAFTWNMNEKLMTPEMFSEALCDDLDLNPLTFVPAIASAIRQQIESY | 0.207 ± 0.04 |
| SQPEVLVPIRLDMEIDGQKLRDAFTWNMNEKLMTPEMFSELLCDDLDLNPLTFVPAIASAIRQQIESY | -0.011 ± 0.036 |
| SQPEVLVPIRLDMEIDGQKLRDAFTWNMNEKLMTPEMFSECLCDDLDLNPLTFVPAIASAIRQQIESY | -0.062 ± 0.061 |
| SQPEVLVPIRLDMEIDGQKLRDAFTWNMNEKLMTPEMFSEQLCDDLDLNPLTFVPAIASAIRQQIESY | 0.211 ± 0.06 |
| SQPEVLVPIRLDMEIDGQKLRDAFTWNMNEKLMTPEMFSERLCDDLDLNPLTFVPAIASAIRQQIESY | 0.218 ± 0.03 |
| SQPEVLVPIRLDMEIDGQKLRDAFTWNMNEKLMTPEMFSESLCDDLDLNPLTFVPAIASAIRQQIESY | 0.174 ± 0.033 |
| SQPEVLVPIRLDMEIDGQKLRDAFTWNMNEKLMTPEMFSEVLCDDLDLNPLTFVPAIASAIRQQIESY | 0.01 ± 0.04 |
| SQPEVLVPIRLDMEIDGQKLRDAFTWNMNEKLMTPEMFSEDLCDDLDLNPLTFVPAIASAIRQQIESY | -0.04 ± 0.12 |
| SQPEVLVPIRLDMEIDGQKLRDAFTWNMNEKLMTPEMFSENLCDDLDLNPLTFVPAIASAIRQQIESY | 0.167 ± 0.068 |
| SQPEVLVPIRLDMEIDGQKLRDAFTWNMNEKLMTPEMFSEMLCDDLDLNPLTFVPAIASAIRQQIESY | 0.131 ± 0.048 |
| SQPEVLVPIRLDMEIDGQKLRDAFTWNMNEKLMTPEMFSEGLCDDLDLNPLTFVPAIASAIRQQIESY | 0.097 ± 0.041 |
| SQPEVLVPIRLDMEIDGQKLRDAFTWNMNEKLMTPEMFSEHLCDDLDLNPLTFVPAIASAIRQQIESY | 0.034 ± 0.061 |
| SQPEVLVPIRLDMEIDGQKLRDAFTWNMNEKLMTPEMFSETLCDDLDLNPLTFVPAIASAIRQQIESY | 0.091 ± 0.049 |
| SQPEVLVPIRLDMEIDGQKLRDAFTWNMNEKLMTPEMFSEKLCDDLDLNPLTFVPAIASAIRQQIESY | 0.314 ± 0.05 |
| SQPEVLVPIRLDMEIDGQKLRDAFTWNMNEKLMTPEMFPEILCDDLDLNPLTFVPAIASAIRQQIESY | -0.685 ± 0.38 |
| SQPEVLVPIRLDMEIDGQKLRDAFTWNMNEKLMTPEMFREILCDDLDLNPLTFVPAIASAIRQQIESY | -0.797 ± 0.36 |
| SQPEVLVPIRLDMEIDGQKLRDAFTWNMNEKLMTPEMFSEILCEDLDLNPLTFVPAIASAIRQQIESY | 0.309 ± 0.22 |
| SQPEVLVPIRLDMEIDGQKLRDAFTWNMNEKLMTPEMFSEILCHDLDLNPLTFVPAIASAIRQQIESY | 0.258 ± 0.17 |
| SQPEVLVPIRLDMEIDGQKLRDAFTWNMNEKLMTPEMFSEILCADLDLNPLTFVPAIASAIRQQIESY | 0.271 ± 0.22 |
| SQPEVLVPIRLDMEIDGQKLRDAFTWNMNEKLMTPEMFSEILCGDLDLNPLTFVPAIASAIRQQIESY | -0.276 ± 0.16 |
| SQPEVLVPIRLDMEIDGQKLRDAFTWNMNEKLMTPEMFSEILEDDLDLNPLTFVPAIASAIRQQIESY | -1.02 ± 0.35 |
| SQPEVLVPIRLDMEIDGQKLRDAFTWNMNEKLMTPEMFSEILKDDLDLNPLTFVPAIASAIRQQIESY | -0.613 ± 0.11 |
| SQPEVLVPIRLDMEIDGQKLRDAFTWNMNEKLMTPEMFSEILGDDLDLNPLTFVPAIASAIRQQIESY | -0.739 ± 0.12 |

| Variant | abundance fitness |
| --- | --- |
| SQPEVLVPIRLDMEIDGQKLRDAFTWNMNEKLMTPEMFSEILHDDLDLNPLTFVPAIASAIRQQIESY | -0.956 ± 0.15 |
| SQPEVLVPIRLDMEIDGQKLRDAFTWNMNEKLMTPEMFSEILMDDLDLNPLTFVPAIASAIRQQIESY | -0.686 ± 0.15 |
| SQPEVLVPIRLDMEIDGQKLRDAFTWNMNEKLMTPEMFSEILSDDLDLNPLTFVPAIASAIRQQIESY | -0.79 ± 0.082 |
| SQPEVLVPIRLDMEIDGQKLRDAFTWNMNEKLMTPEMFSEILLDDLDLNPLTFVPAIASAIRQQIESY | -0.808 ± 0.083 |
| SQPEVLVPIRLDMEIDGQKLRDAFTWNMNEKLMTPEMFSEILNDDLDLNPLTFVPAIASAIRQQIESY | -1.03 ± 0.19 |
| SQPEVLVPIRLDMEIDGQKLRDAFTWNMNEKLMTPEMFSEILTDDLDLNPLTFVPAIASAIRQQIESY | -0.971 ± 0.18 |
| SQPEVLVPIRLDMEIDGQKLRDAFTWNMNEKLMTPEMFSEILWDDLDLNPLTFVPAIASAIRQQIESY | -0.497 ± 0.097 |
| SQPEVLVPIRLDMEIDGQKLRDAFTWNMNEKLMTPEMFSEILQDDLDLNPLTFVPAIASAIRQQIESY | -0.72 ± 0.11 |
| SQPEVLVPIRLDMEIDGQKLRDAFTWNMNEKLMTPEMFSEILRDDLDLNPLTFVPAIASAIRQQIESY | -0.831 ± 0.1 |
| SQPEVLVPIRLDMEIDGQKLRDAFTWNMNEKLMTPEMFSEILVDDLDLNPLTFVPAIASAIRQQIESY | -0.249 ± 0.035 |
| SQPEVLVPIRLDMEIDGQKLRDAFTWNMNEKLMTPEMFSEILYDDLDLNPLTFVPAIASAIRQQIESY | -0.662 ± 0.1 |
| SQPEVLVPIRLDMEIDGQKLRDAFTWNMNEKLMTPEMFSEILADDLDLNPLTFVPAIASAIRQQIESY | -0.467 ± 0.099 |
| SQPEVLVPIRLDMEIDGQKLRDAFTWNMNEKLMTPEMFSTILCDDLDLNPLTFVPAIASAIRQQIESY | -0.12 ± 0.045 |
| SQPEVLVPIRLDMEIDGQKLRDAFTWNMNEKLMTPEMFSKILCDDLDLNPLTFVPAIASAIRQQIESY | -0.015 ± 0.055 |
| SQPEVLVPIRLDMEIDGQKLRDAFTWNMNEKLMTPEMFSIILCDDLDLNPLTFVPAIASAIRQQIESY | -0.419 ± 0.099 |
| SQPEVLVPIRLDMEIDGQKLRDAFTWNMNEKLMTPEMFSRILCDDLDLNPLTFVPAIASAIRQQIESY | 0.042 ± 0.033 |
| SQPEVLVPIRLDMEIDGQKLRDAFTWNMNEKLMTPEMFSMILCDDLDLNPLTFVPAIASAIRQQIESY | -0.149 ± 0.073 |
| SQPEVLVPIRLDMEIDGQKLRDAFTWNMNEKLMTPEMFSFILCDDLDLNPLTFVPAIASAIRQQIESY | -0.463 ± 0.17 |
| SQPEVLVPIRLDMEIDGQKLRDAFTWNMNEKLMTPEMFSNILCDDLDLNPLTFVPAIASAIRQQIESY | -0.269 ± 0.11 |
| SQPEVLVPIRLDMEIDGQKLRDAFTWNMNEKLMTPEMFSAILCDDLDLNPLTFVPAIASAIRQQIESY | 0.038 ± 0.033 |
| SQPEVLVPIRLDMEIDGQKLRDAFTWNMNEKLMTPEMFSWILCDDLDLNPLTFVPAIASAIRQQIESY | -0.511 ± 0.06 |
| SQPEVLVPIRLDMEIDGQKLRDAFTWNMNEKLMTPEMFSYILCDDLDLNPLTFVPAIASAIRQQIESY | -0.33 ± 0.082 |
| SQPEVLVPIRLDMEIDGQKLRDAFTWNMNEKLMTPEMFSDILCDDLDLNPLTFVPAIASAIRQQIESY | -0.566 ± 0.089 |
| SQPEVLVPIRLDMEIDGQKLRDAFTWNMNEKLMTPEMFSQILCDDLDLNPLTFVPAIASAIRQQIESY | 0.005 ± 0.065 |
| SQPEVLVPIRLDMEIDGQKLRDAFTWNMNEKLMTPEMFSVILCDDLDLNPLTFVPAIASAIRQQIESY | -0.215 ± 0.041 |
| SQPEVLVPIRLDMEIDGQKLRDAFTWNMNEKLMTPEMFSGILCDDLDLNPLTFVPAIASAIRQQIESY | -0.347 ± 0.036 |
| SQPEVLVPIRLDMEIDGQKLRDAFTWNMNEKLMTPEMFSPILCDDLDLNPLTFVPAIASAIRQQIESY | -0.794 ± 0.14 |

| Variant | abundance fitness |
| --- | --- |
| SQPEVLVPIRLDMEIDGQKLRDAFTWNMNEKLMTPEMFSHILCDDLDLNPLTFVPAIASAIRQQIESY | -0.236 ± 0.065 |
| SQPEVLVPIRLDMEIDGQKLRDAFTWNMNEKLMTPEMFSSILCDDLDLNPLTFVPAIASAIRQQIESY | -0.114 ± 0.045 |
| SQPEVLVPIRLDMEIDGQKLRDAFTWNMNEKLMTPEMFSEIECDDLDLNPLTFVPAIASAIRQQIESY | -0.978 ± 0.11 |
| SQPEVLVPIRLDMEIDGQKLRDAFTWNMNEKLMTPEMFSEISCDDLDLNPLTFVPAIASAIRQQIESY | -0.69 ± 0.14 |
| SQPEVLVPIRLDMEIDGQKLRDAFTWNMNEKLMTPEMFSEIGCDDLDLNPLTFVPAIASAIRQQIESY | -0.909 ± 0.1 |
| SQPEVLVPIRLDMEIDGQKLRDAFTWNMNEKLMTPEMFSEICCDDLDLNPLTFVPAIASAIRQQIESY | -0.846 ± 0.2 |
| SQPEVLVPIRLDMEIDGQKLRDAFTWNMNEKLMTPEMFSEIRCDDLDLNPLTFVPAIASAIRQQIESY | -0.211 ± 0.045 |
| SQPEVLVPIRLDMEIDGQKLRDAFTWNMNEKLMTPEMFSEIPCDDLDLNPLTFVPAIASAIRQQIESY | -0.33 ± 0.1 |
| SQPEVLVPIRLDMEIDGQKLRDAFTWNMNEKLMTPEMFSEIACDDLDLNPLTFVPAIASAIRQQIESY | -0.721 ± 0.1 |
| SQPEVLVPIRLDMEIDGQKLRDAFTWNMNEKLMTPEMFSEIHCDDLDLNPLTFVPAIASAIRQQIESY | -0.636 ± 0.12 |
| SQPEVLVPIRLDMEIDGQKLRDAFTWNMNEKLMTPEMFSEIICDDLDLNPLTFVPAIASAIRQQIESY | -0.005 ± 0.082 |
| SQPEVLVPIRLDMEIDGQKLRDAFTWNMNEKLMTPEMFSEIVCDDLDLNPLTFVPAIASAIRQQIESY | -0.111 ± 0.061 |
| SQPEVLVPIRLDMEIDGQKLRDAFTWNMNEKLMTPEMFSEIKCDDLDLNPLTFVPAIASAIRQQIESY | -0.106 ± 0.072 |
| SQPEVLVPIRLDMEIDGQKLRDAFTWNMNEKLMTPEMFSEIYCDDLDLNPLTFVPAIASAIRQQIESY | -0.071 ± 0.12 |
| SQPEVLVPIRLDMEIDGQKLRDAFTWNMNEKLMTPEMFSEIWCDDLDLNPLTFVPAIASAIRQQIESY | -0.883 ± 0.34 |
| SQPEVLVPIRLDMEIDGQKLRDAFTWNMNEKLMTPEMFSEITCDDLDLNPLTFVPAIASAIRQQIESY | -0.854 ± 0.13 |
| SQPEVLVPIRLDMEIDGQKLRDAFTWNMNEKLMTPEMFSEIDCDDLDLNPLTFVPAIASAIRQQIESY | -0.869 ± 0.19 |
| SQPEVLVPIRLDMEIDGQKLRDAFTWNMNEKLMTPEMFSEIFCDDLDLNPLTFVPAIASAIRQQIESY | -0.128 ± 0.21 |
| SQPEVLVPIRLDMEIDGQKLRDAFTWNMNEKLMTPEMFSEIMCDDLDLNPLTFVPAIASAIRQQIESY | 0.117 ± 0.064 |
| SQPEVLVPIRLDMEIDGQKLRDAFTWNMNEKLMTPEMFSEINCDDLDLNPLTFVPAIASAIRQQIESY | -0.549 ± 0.11 |
| SQPEVLVPIRLDMEIDGQKLRDAFTWNMNEKLMTPEMWSEILCDDLDLNPLTFVPAIASAIRQQIESY | -0.235 ± 0.21 |
| SQPEVLVPIRLDMEIDGQKLRDAFTWNMNEKLMTPEMRSEILCDDLDLNPLTFVPAIASAIRQQIESY | 0.11 ± 0.14 |
| SQPEVLVPIRLDMEIDGQKLRDAFTWNMNEKLMTPEMTSEILCDDLDLNPLTFVPAIASAIRQQIESY | -0.722 ± 0.28 |
| SQPEVLVPIRLDMEIDGQKLRDAFTWNMNEKLMTPEMSSEILCDDLDLNPLTFVPAIASAIRQQIESY | -0.809 ± 0.24 |
| SQPEVLVPIRLDMEIDGQKLRDAFTWNMNEKLMTPEMYSEILCDDLDLNPLTFVPAIASAIRQQIESY | -0.509 ± 0.49 |
